The values that follow come from PMC5039005.

The target in assay [1] is Str-Ct.Samp1(1–180) (Chaetomium thermophilum). As to the kind of experiment: pull-down.
Assay [2] concerns the target Samp1-YFP (human) (UniProt Q5SNT2). The assay can be described thus: cross-linking + co-IP.

Turning to “His6-Ran (from UniProt P62826 1-216) (natural protein)”, in assay [1], the fold binding, RanGTP against RanGDP is 1.8 fold and the percent of RanGTP pulled down at a 1:1 molar ratio was determined as 40%.
Regarding “Ran (endogenous in tsBN2 and BHK-21 cells) (from UniProt A0A8C2MF66 1-216) (natural protein)”, in assay [2], the percent of total RanGTP bound in live cells turned out to be 1%.
